What was measured:
[1] = test system: VEGF- or bFGF-induced neovascularization; assay: In vivo Matrigel plug assay, VEGF or bFGF plugs, neovascularization; parameters: species or system mouse; details: 25 mg/kg i.p. every 48 hrs, 10 days
Description: Endogenous S1P from the blood and surrounding tissue could supply a wound with pro-angiogenic stimuli. The ability of SPHINGOMAB to reduce endogenous S1P in a wound was investigated. Optimally stimulated plugs (Matrigel supplemented with 0.5 μg/mL bFGF or […] VEGF) were implanted into mice. Mice received i.p. injections of 25 mg/kg SPHINGOMAB or saline every 48 hrs starting 1 day prior to Matrigel implantation. Each treatment group (Matrigel, Matrigel plus GF or Matrigel plus GF and administered SPHINGOMAB) consisted of a minimum of 6 mice. After 10 days, the mice were treated with heparin, injected with Isolectin B4-FITC, the plugs excised, embedded in OCT freezing medium and sectioned.

[2] = test system: macrophage and mast cell infiltration; assay: Murine infarct model, immune cell infiltration; type: in vivo, mouse; details: 25 mg/kg; four days post-MI
Description: SPHINGOMAB reduced immune-cell wound infiltration in vivo. Mice were subjected to MI, treated with saline or 25 mg/kg SPHINGOMAB 48 hr. after surgery and then sacrificed on day 4. SPHINGOMAB reduced macrophage (A) and mast cell (B) infiltration into the wound. Data are represented as fold decrease of saline-treated values.
Based upon the similarities of immune and inflammatory responses in CNV and CVD, the efficacy of SPHINGOMAB to mitigate immune cell infiltration into a wound was evaluated in a murine infarct model as an indication of SPHINGOMAB's potential effects in mitigating these damages during AMD [Vine, et al. (2005), Opthalmology, vol 112: 2076-80; and Seddon and Chen (2004), Int Opthalmol Clin, vol 44: 17-39]. Four days post-MI, macrophage and mast cell infiltration was evaluated using MAC-1 and MCG35 antibodies, respectively, within the area at risk.

[3] = test system: ovarian cancer (OVCAR3) cells; assay: S1P-induced IL-8 release; type: cell-based, human; details: 1 uM S1P; 22 hours
Description: FIG. 12 has two panels, A and B, that show data from in vitro cell assays performed using several humanized monoclonal antibody variants. […] As described in Example 16, below, SKOV3 cells were treated for 48 hr. with 500 nM Taxol (Tax) in the presence or absence of 500 nM S1P with huMAbHCLC3 (309), huMAbHCLC5 (308), muMAb S1P (muMAb), or non-specific IgG1 (NS) at a concentration of 1 μg/mL. Values represent means±SEM (n=3) with triplicates run for each data point. “NT” means not treated, and “Veh” stans for vehicle only. […] In the experiments described in detail in Example 16, below, 100,000 OVCAR3 cells/well were starved overnight and 1 uM S1P was added to the culture media alone or pre-incubated with 1 ug/ml of non-specific antibody (NS), pATH201+pATH309 (LC3), pATH201+pATH308 (LC5), pATH207+pATH309 (cysLC3), pATH207+pATH308 (cysLC5), and 0.1 ug/ml (M0.1), 1 ug/ml (M1) or 10 ug/ml (M10) of anti-S1P murine antibody. After 22 hours of incubation, cell supernatants were collected and IL-8 secretion was measured by ELISA using an R&D system Quantikine human CXCL8/IL-8 kit. In the figure “NT” refers to non-treated cells.
In parallel, all the variants were tested for their effects on S1P-induced cytokine release from cancer cells. S1P is known to elicit significant release of IL-8 into the cell-conditioned media from cancer cells.

[4] = test system: CNV lesions; assay: CNV animal model, murine vs humanized variants (Example 17); type: in vivo, mouse; details: 0.5 ug intravitreal Day 0 and Day 6; 14 days post laser; vs saline
Description: The humanized antibody variants and the murine antibody were compared for their ability to inhibit neo-vascularization in the CNV animal model of AMD as shown in FIG. 13. […] Mice were sacrificed 14 days post laser surgery. Control mice were treated with aqueous buffer (PBS) or an isotype-matched non-specific antibody. Three of the humanized variants inhibited angiogenesis essentially equivalently to the murine antibody as assessed by measurement of CNV area. CNV lesion volumes are represented as means±SEM. […]
The morphometric and volumetric CNV lesions were measured as follows. […]
Captured digital images were evaluated morphometrically using ImageJ software (Research Services Branch, National Institutes of Health, Bethesda, Md.). Images were split into separate RGB channels for analysis of the red and green channels as follows: 1) a calibration for the specific objective and microscope was applied to set the pixel-to-length ratio; 2) a threshold was applied using the Otsu algorithm; 3) images will be made binary; 4) a region-of-interest (ROI) was outlined to include the entire lesion area; 5) a particle analysis was performed to quantify the pixel area above the threshold level within the ROI. […]

B1: LT1002: murine monoclonal antibody to S1P, IgG1 kappa, hybridoma clone 306D326.26 (antibody, listed as Mus sp., V domains shown)
VH: QAHLQQSDAELVKPGASVKISCKVSGFIFIDHTIHWMKQRPEQGLEWIGCISPRHDITKYNEMFRGKATLTADKSSTTAYIQVNSLTFEDSAVYFCARGGFYGSTIWFDFWGQGTTLTVS
VL: ETTVTQSPASLSMAIGEKVTIRCITTTDIDDDMNWFQQKPGEPPNLLISEGNILRPGVPSRFSSSGYGTDFLFTIENMLSEDVADYYCLQSDNLPFTFGSGTKLEIK
- decrease in neovascularization of VEGF-containing plugs vs saline-treated [1]: 5 fold
- decrease in neovascularization of bFGF-containing plugs vs saline-treated ([1]; 0.5 μg/mL bFGF): 8.5 fold
- density of inflammatory macrophages [2]: dramatically attenuated
- density of mast cells [2]: dramatically attenuated
- reduction of S1P-induced IL-8 release [3]: reduced IL-8 release from ovarian cancer cells in a concentration-dependent manner
- Percent inhibition of lesion size [4]: approximately 80%

Reference: US8614103B2, “Compositions and methods for treating sphingosine-1-phosphate (S1P) related ocular diseases and conditions” (Lpath, Inc., priority 2006, dated 2013)
